Square brackets hold non-standard residues; d marks the D form. Peptide text beside a SMILES is read from it. * marks the point of attachment. X3 = O=C(CCCCCNCc1nc2c(sc3cc(Br)cnc32)c(=O)[nH]1)*
Legend:
Experiment in all cases: Kinase profiling (radiometric filter-binding)
Type in all cases: biochemical
[1] = biological target: BRK (Homo sapiens, UniProt Q13882); conditions: 1 µM inhibitor, read-out: Residual activity, %
How it was run: (§1)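 Each compound, at 1 µM final, is screened against human protein kinases in a radiometric filter-binding format. ATP is set at or under the KM of each kinase. Values give retained activity relative to a control lacking inhibitor.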

[2] = biological target: CDK2-Cyclin A (Homo sapiens, UniProt P24941); conditions: 1 µM inhibitor, read-out: Residual activity, %
How it was run: as §1

[3] = biological target: T1, EPH-B1 (Homo sapiens, UniProt P54762); conditions: EPH-B1, 1 µM inhibitor; read-out: Residual activity, %
T1 sequence (P54762 18-984): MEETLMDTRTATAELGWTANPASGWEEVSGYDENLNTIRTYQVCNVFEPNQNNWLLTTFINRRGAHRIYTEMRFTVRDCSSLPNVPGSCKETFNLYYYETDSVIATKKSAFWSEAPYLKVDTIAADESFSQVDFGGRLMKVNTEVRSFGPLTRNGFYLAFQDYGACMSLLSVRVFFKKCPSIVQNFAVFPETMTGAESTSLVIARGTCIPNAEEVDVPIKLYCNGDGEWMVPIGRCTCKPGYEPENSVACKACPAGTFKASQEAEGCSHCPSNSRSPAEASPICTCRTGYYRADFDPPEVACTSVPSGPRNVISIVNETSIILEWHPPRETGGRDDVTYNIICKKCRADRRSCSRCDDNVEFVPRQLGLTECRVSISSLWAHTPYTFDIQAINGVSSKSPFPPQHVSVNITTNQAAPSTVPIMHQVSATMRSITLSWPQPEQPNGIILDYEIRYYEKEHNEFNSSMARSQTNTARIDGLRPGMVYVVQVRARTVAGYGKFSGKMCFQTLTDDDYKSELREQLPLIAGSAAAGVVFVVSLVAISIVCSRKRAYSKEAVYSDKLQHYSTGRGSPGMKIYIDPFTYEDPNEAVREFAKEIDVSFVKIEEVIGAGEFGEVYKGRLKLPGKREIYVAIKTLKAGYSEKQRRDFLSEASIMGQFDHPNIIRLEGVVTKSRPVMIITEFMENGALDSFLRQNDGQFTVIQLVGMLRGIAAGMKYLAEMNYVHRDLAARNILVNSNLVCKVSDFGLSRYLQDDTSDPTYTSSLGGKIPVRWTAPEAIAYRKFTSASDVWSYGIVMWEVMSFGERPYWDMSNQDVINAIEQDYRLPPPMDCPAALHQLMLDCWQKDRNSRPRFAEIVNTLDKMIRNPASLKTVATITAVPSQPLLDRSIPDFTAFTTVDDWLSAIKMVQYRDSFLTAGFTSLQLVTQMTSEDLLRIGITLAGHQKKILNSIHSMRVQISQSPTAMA
How it was run: as §1

[4] = biological target: JNK1 (Homo sapiens, UniProt P45983); conditions: JNK1, 1 µM inhibitor; read-out: Residual activity, %
How it was run: as §1

[5] = biological target: MKK1 (Homo sapiens, UniProt Q02750); conditions: MKK1, 1 µM inhibitor; read-out: Residual activity, %
How it was run: as §1

[6] = biological target: T2, MST2 (Homo sapiens, UniProt Q13188); conditions: MST2, 1 µM inhibitor; read-out: Residual activity, %
T2 sequence (Q13188 1-491): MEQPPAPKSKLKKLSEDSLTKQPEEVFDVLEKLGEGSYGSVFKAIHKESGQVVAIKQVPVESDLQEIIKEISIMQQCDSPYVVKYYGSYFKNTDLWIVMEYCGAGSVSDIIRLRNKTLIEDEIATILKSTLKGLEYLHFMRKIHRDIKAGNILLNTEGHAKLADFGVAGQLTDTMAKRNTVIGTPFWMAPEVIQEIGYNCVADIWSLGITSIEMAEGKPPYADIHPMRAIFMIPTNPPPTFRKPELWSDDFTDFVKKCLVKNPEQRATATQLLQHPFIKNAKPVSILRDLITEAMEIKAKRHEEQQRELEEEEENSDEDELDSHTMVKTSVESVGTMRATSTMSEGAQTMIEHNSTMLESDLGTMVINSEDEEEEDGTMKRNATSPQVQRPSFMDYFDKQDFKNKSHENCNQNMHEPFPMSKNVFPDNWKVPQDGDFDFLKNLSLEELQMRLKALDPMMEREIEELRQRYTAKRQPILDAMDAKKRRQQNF
How it was run: as §1

[7] = biological target: NEK6 (Homo sapiens, UniProt Q9HC98); conditions: NEK6, 1 µM inhibitor; read-out: Residual activity, %
How it was run: as §1

[8] = biological target: PAK2 (Homo sapiens, UniProt Q13177); conditions: PAK2, 1 µM inhibitor; read-out: Residual activity, %
How it was run: as §1

[9] = biological target: S6K1 (Homo sapiens, UniProt P23443); conditions: S6K1, 1 µM inhibitor; read-out: Residual activity, %
How it was run: as §1

[10] = biological target: T3, SGK1 (Homo sapiens, UniProt O00141); conditions: SGK1, 1 µM inhibitor; read-out: Residual activity, %
T3 sequence (O00141 1-431): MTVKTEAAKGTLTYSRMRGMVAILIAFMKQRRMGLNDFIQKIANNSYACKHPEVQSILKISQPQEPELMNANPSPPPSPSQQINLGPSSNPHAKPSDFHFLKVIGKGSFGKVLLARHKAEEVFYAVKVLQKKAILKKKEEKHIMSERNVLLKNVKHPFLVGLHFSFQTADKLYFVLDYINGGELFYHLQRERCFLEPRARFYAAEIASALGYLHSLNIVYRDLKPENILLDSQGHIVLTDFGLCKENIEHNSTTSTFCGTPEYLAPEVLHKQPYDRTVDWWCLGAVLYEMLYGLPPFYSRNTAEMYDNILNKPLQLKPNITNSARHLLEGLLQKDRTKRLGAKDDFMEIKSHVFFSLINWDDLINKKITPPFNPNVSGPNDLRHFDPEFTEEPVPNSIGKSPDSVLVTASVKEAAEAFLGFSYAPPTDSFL
How it was run: as §1

BRK, sequence (Q13882 whole entry): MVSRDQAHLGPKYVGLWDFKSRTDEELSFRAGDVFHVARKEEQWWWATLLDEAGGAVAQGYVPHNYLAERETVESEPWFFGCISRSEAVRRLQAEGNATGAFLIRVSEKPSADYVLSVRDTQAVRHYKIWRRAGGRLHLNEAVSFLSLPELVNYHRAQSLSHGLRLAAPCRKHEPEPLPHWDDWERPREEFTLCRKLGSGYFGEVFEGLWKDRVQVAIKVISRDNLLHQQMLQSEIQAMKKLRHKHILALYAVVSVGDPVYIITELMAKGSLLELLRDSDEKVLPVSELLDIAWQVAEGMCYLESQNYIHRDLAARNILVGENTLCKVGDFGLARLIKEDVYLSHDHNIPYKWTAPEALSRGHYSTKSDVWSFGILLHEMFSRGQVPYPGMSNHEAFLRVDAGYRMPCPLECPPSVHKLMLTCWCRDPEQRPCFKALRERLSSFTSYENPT
PAK2, sequence (Q13177 whole entry): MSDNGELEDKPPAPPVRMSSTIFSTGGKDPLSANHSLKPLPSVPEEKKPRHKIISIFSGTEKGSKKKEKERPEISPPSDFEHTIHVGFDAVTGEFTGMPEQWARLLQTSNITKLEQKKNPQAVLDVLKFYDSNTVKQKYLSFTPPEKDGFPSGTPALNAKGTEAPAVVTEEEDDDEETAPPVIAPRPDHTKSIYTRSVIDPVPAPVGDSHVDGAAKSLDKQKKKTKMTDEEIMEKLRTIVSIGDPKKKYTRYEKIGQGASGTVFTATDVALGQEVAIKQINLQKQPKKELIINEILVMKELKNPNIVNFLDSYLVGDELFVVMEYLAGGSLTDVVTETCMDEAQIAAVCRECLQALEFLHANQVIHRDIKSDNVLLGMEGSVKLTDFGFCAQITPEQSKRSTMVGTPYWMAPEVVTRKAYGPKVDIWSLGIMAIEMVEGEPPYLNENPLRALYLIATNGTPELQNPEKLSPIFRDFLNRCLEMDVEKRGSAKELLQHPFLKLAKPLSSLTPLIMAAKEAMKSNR
NEK6, sequence (Q9HC98 whole entry): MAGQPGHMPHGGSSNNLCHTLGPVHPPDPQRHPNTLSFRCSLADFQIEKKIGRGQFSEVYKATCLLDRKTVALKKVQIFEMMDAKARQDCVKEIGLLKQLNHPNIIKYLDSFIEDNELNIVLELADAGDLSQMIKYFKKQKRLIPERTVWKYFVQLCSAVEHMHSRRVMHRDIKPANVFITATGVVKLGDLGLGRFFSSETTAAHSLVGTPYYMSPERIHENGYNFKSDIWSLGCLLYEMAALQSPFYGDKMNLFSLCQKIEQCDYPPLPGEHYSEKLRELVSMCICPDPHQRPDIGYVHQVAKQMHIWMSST
MKK1, sequence (Q02750 whole entry): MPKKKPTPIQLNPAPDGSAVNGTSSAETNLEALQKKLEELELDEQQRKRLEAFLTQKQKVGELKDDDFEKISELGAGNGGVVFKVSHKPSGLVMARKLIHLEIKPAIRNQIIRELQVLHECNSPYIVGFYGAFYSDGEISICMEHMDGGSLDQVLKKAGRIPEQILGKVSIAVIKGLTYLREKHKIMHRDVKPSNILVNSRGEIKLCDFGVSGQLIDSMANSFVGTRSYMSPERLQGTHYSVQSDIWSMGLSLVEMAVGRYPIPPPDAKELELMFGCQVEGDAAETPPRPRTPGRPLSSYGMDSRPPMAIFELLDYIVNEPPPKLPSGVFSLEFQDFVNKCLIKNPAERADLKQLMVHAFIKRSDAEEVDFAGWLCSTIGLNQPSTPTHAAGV
S6K1, sequence (P23443 whole entry): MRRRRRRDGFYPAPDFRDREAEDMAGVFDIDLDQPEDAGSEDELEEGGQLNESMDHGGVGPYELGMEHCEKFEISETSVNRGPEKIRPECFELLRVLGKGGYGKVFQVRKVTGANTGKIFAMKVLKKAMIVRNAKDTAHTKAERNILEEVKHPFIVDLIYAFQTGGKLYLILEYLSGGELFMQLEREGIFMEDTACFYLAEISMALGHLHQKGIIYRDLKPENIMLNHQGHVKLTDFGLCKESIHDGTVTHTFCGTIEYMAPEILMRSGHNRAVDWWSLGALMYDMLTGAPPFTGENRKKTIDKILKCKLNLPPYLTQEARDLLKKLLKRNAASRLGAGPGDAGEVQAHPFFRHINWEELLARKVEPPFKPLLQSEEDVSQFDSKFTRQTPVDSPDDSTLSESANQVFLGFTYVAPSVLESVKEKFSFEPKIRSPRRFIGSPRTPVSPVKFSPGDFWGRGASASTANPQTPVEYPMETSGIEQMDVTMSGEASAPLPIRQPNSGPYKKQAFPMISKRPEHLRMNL
JNK1, sequence (P45983 whole entry): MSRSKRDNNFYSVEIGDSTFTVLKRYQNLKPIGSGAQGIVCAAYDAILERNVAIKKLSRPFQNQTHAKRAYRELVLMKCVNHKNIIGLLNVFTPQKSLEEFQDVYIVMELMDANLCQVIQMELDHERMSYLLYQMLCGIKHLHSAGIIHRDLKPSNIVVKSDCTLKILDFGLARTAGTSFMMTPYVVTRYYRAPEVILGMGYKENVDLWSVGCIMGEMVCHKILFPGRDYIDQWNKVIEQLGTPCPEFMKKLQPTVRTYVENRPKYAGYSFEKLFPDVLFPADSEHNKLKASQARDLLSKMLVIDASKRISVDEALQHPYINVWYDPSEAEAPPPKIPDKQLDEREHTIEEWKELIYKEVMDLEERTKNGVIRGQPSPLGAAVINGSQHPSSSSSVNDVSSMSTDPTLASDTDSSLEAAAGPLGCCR

## N=C(N)NCCC[C@@H](NC(=O)CNC(=O)[C@@H](CCCNC(=N)N)NC(=O)[C@@H](CCCNC(=N)N)NC(=O)Cn1cc(CNCc2nc3c(sc4ccc(Br)cc43)c(=O)[nH]2)nn1)C(=O)N[C@H](CCCCN)C(N)=O [Compound 3, BBTP-Amt-(D-Arg)2-Gly-D-Arg-D-Lys-NH2]
[1]
  remaining activity at 1 µM: 114 ± 13%
[2]
  remaining activity at 1 µM: 100%
[3]
  remaining activity at 1 µM: 106 ± 11%
[4]
  remaining activity at 1 µM: 115 ± 13%
[5]
  remaining activity at 1 µM: 92 ± 6%
[6]
  remaining activity at 1 µM: 84 ± 6%
[7]
  remaining activity at 1 µM: 117 ± 23%
[8]
  remaining activity at 1 µM: 91 ± 4%
[9]
  remaining activity at 1 µM: 55 ± 6%
[10]
  remaining activity at 1 µM: 95 ± 4%

## N=C(N)NCCC[C@@H](NC(=O)CCCCCNCc1nc2c(sc3cc(Br)cnc32)c(=O)[nH]1)C(=O)N[C@H](CCCNC(=N)N)C(=O)N[C@H](CCCNC(=N)N)C(=O)N[C@H](CCCNC(=N)N)C(=O)N[C@H](CCCNC(=N)N)C(=O)N[C@H](CCCNC(=N)N)C(=O)N[C@H](CCCCN)C(N)=O [ARC-3126, BPTP-Ahx-(D-Arg)6-D-Lys-NH2] (X3-[dR][dR][dR][dR][dR][dR][dK]-NH2)
[1]
  remaining activity at 1 µM: 81 ± 4%
[2]
  remaining activity at 1 µM: 106 ± 5%
[3]
  remaining activity at 1 µM: 96 ± 6%
[4]
  remaining activity at 1 µM: 116 ± 4%
[5]
  remaining activity at 1 µM: 100 ± 6%
[6]
  remaining activity at 1 µM: 106 ± 6%
[7]
  remaining activity at 1 µM: 85 ± 17%
[8]
  remaining activity at 1 µM: 72 ± 5%
[9]
  remaining activity at 1 µM: 75 ± 2%
[10]
  remaining activity at 1 µM: 75 ± 9%

## N=C(N)NCCC[C@@H](NC(=O)CCCCCNC(=O)Cn1cnc2c(I)c(I)c(I)c(I)c21)C(=O)N[C@H](CCCNC(=N)N)C(=O)N[C@H](CCCNC(=N)N)C(=O)N[C@H](CCCNC(=N)N)C(=O)N[C@H](CCCNC(=N)N)C(=O)N[C@H](CCCNC(=N)N)C(=O)N[C@H](CCCCN)C(N)=O [ARC-3125, TIBI-CH2-C(=O)-Ahx-(D-Arg)6-D-Lys-NH2]
[1]
  remaining activity at 1 µM: 82 ± 41%
[2]
  remaining activity at 1 µM: 17 ± 1%
[3]
  remaining activity at 1 µM: 106 ± 12%
[4]
  remaining activity at 1 µM: 82 ± 13%
[5]
  remaining activity at 1 µM: 32 ± 27%
[6]
  remaining activity at 1 µM: 73 ± 1%
[7]
  remaining activity at 1 µM: 97%
[8]
  remaining activity at 1 µM: 29 ± 4%
[9]
  remaining activity at 1 µM: 13%
[10]
  remaining activity at 1 µM: 9 ± 5%

## N=C(N)NCCC[C@@H](NC(=O)CNC(=O)[C@@H](CCCNC(=N)N)NC(=O)[C@@H](CCCNC(=N)N)NC(=O)CCCCCCCNCc1nc2c(sc3cc(Br)cnc32)c(=O)[nH]1)C(=O)N[C@H](CCCCN)C(N)=O [Compound 1, BPTP-Aoc-(D-Arg)2-Gly-D-Arg-D-Lys-NH2]
[1]
  remaining activity at 1 µM: 126 ± 8%
[2]
  remaining activity at 1 µM: 106 ± 12%
[3]
  remaining activity at 1 µM: 103 ± 9%
[4]
  remaining activity at 1 µM: 100 ± 13%
[5]
  remaining activity at 1 µM: 93 ± 4%
[6]
  remaining activity at 1 µM: 115 ± 11%
[7]
  remaining activity at 1 µM: 107 ± 11%
[8]
  remaining activity at 1 µM: 99 ± 9%
[9]
  remaining activity at 1 µM: 98 ± 2%
[10]
  remaining activity at 1 µM: 110 ± 19%

## N=C(N)NCCC[C@@H](NC(=O)CNC(=O)[C@@H](CCCNC(=N)N)NC(=O)[C@@H](CCCNC(=N)N)NC(=O)CCCCCCCNCc1nc2c(sc3ccc(Br)cc32)c(=O)[nH]1)C(=O)N[C@H](CCCCN)C(N)=O [Compound 2, BBTP-Aoc-(D-Arg)2-Gly-D-Arg-D-Lys-NH2]
[1]
  remaining activity at 1 µM: 114 ± 11%
[2]
  remaining activity at 1 µM: 105 ± 9%
[3]
  remaining activity at 1 µM: 99 ± 15%
[4]
  remaining activity at 1 µM: 112 ± 2%
[5]
  remaining activity at 1 µM: 94 ± 1%
[6]
  remaining activity at 1 µM: 128 ± 35%
[7]
  remaining activity at 1 µM: 126 ± 5%
[8]
  remaining activity at 1 µM: 100 ± 10%
[9]
  remaining activity at 1 µM: 85 ± 1%
[10]
  remaining activity at 1 µM: 89 ± 3%

Source: PMC8307404, “Crystal Structure-Guided Design of Bisubstrate Inhibitors and Photoluminescent Probes for Protein Kinases of the PIM Family” (Molecules, 2021)
